Residue numbers refer to the chain shown, from its start. In names and notes the source's numbering stands.
B1: A02_Rd4_6nM_C01 (antibody, V domains shown)
VH: EVQLLESGGGLVQPGGSLRLSCAASGFTFSSYAMNWVRQAPGKGLEWVSAITASGGSTYYADSVKGRFTISRDNSKNTLYLQMNSLRAEDTAVYYCARYWPMSLWGQGTLVTVSS
VL: EIVLTQSPGTLSLSPGERATLSCRASQSVSAYYLAWYQQKPGQAPRLLMYDASIRATGIPDRFSGSGSGTDFTLTISRLEPEDFAVYYCQQYERWPLTFGQGTKVEIK
notes: IgG
B2: COMBO_Rd4_0.6nM_C29 (antibody, V domains shown)
VH: B1 VH with A33P, N35S, T52G, A53G, T58L, Y59P, S103D, L104I
VL: B1 VL with A31S, Y32S, E93Q, R94S
notes: IgG
B3: A02_Rd4_6nM_C16 (antibody, V domains shown)
VH: B1 VH with T52S, A53D, S54F, S103D, L104I
VL: B1 VL with A31D, Y32L, E93Q, R94T
notes: IgG; also called P5AC16; P5A16
B4: P6AP-V1 (protein)
chain: EVQLLESGGGLVQPGGSLRLSCAASGFTFGSYAMTWVRQAPGKGLEWVSAISGSGGNTFYADSVKGRFTISRDNSKNTLYLQMNSLRAEDTAVYYCARVSPIAAPMDYWGQGTLVTVSSGGGGSGGGGSGGGGSEIVLTQSPGTLSLSPGERATLSCRASQLGSFYLAWYQQKPGQAPRLLIYGASSRATGIPDRFSGSGSGTDFTLTISRLEPEDFAVYYCQHYNYPPSFTFGQGTKVEIKGLAVSTISSFFPPGYQIYIWAPLAGTCGVLLLSLVITLYCKRGRKKLLYIFKQPFMRPVQTTQEEDGCSCRFPEEEEGGCELRVKFSRSADAPAYQQGQNQLYNELNLGRREEYDVLDKRRGRDPEMGGKPRRKNPQEGLYNELQKDKMAEAYSEIGMKGERRRGKGHDGLYQGLSTATKDTYDALHMQALPPR
B5: PC1C12-V1 BCMA specific CAR (protein)
chain: EVQLLESGGGLVQPGGSLRLSCAASGFTFSSYPMSWVRQAPGKGLEWVSAIGGSGGWSYYADSVKGRFTISRDNSKNTLYLQMNSLRAEDTAVYYCARYWPMDSWGQGTLVTVSSGGGGSGGGGSGGGGSEIVLTQSPGTLSLSPGERATLSCWLSQSVSSTYLAWYQQKPGQAPRLLIYDASSRAPGIPDRFSGSGSGTDFTLTISRLEPEDFAVYYCQQYSEWPLTFGQGTKVEIKGLAVSTISSFFPPGYQIYIWAPLAGTCGVLLLSLVITLYCKRGRKKLLYIFKQPFMRPVQTTQEEDGCSCRFPEEEEGGCELRVKFSRSADAPAYQQGQNQLYNELNLGRREEYDVLDKRRGRDPEMGGKPRRKNPQEGLYNELQKDKMAEAYSEIGMKGERRRGKGHDGLYQGLSTATKDTYDALHMQALPPR
B6: PC1-V1 BCMA specific CAR (protein)
chain: B5 chain with W57S, S58T, W154R, L155A, E224T, W225S
B7: COM22-V1 BCMA specific CAR (protein)
chain: EVQLLESGGGLVQPGGSLRLSCAASGFTFSSYAMNWVRQAPGKGLEWVSAISDSGGSRWYADSVKGRFTISRDNSKNTLYLQMNSLRAEDTAVYYCTRYWPMDIWGQGTLVTVSSGGGGSGGGGSGGGGSEIVLTQSPGTLSLSPGERATLSCRASVRVSSTYLAWYQQKPGQAPRLLMYDASIRATGIPDRFSGSGSGTDFTLTISRLEPEDFAVYYCQQYMKWPLTFGQGTKVEIKGLAVSTISSFFPPGYQIYIWAPLAGTCGVLLLSLVITLYCKRGRKKLLYIFKQPFMRPVQTTQEEDGCSCRFPEEEEGGCELRVKFSRSADAPAYQQGQNQLYNELNLGRREEYDVLDKRRGRDPEMGGKPRRKNPQEGLYNELQKDKMAEAYSEIGMKGERRRGKGHDGLYQGLSTATKDTYDALHMQALPPR
B8: P5A-V1 BCMA specific CAR (protein)
chain: B7 chain with R58T, W59Y, T97A, V157Q, R158S, T162S, M223G, K224S
B9: P5AC16-V1 BCMA specific CAR (protein)
chain: B7 chain with S54F, R58T, W59Y, T97A, V157Q, R158S, S161D, T162L, M223Q, K224T
B10: P5AC1-V1 BCMA specific CAR (protein)
chain: EVQLLESGGGLVQPGGSLRLSCAASGFTFSSYAMNWVRQAPGKGLEWVSAILSSGGSTYYADSVKGRFTISRDNSKNTLYLQMNSLRAEDTAVYYCARYWPMDIWGQGTLVTVSSGGGGSGGGGSGGGGSEIVLTQSPGTLSLSPGERATLSCRGGQSVSSSYLAWYQQKPGQAPRLLMYDASIRATGIPDRFSGSGSGTDFTLTISRLEPEDFAVYYCQQYQSWPLTFGQGTKVEIKGLAVSTISSFFPPGYQIYIWAPLAGTCGVLLLSLVITLYCKRGRKKLLYIFKQPFMRPVQTTQEEDGCSCRFPEEEEGGCELRVKFSRSADAPAYQQGQNQLYNELNLGRREEYDVLDKRRGRDPEMGGKPRRKNPQEGLYNELQKDKMAEAYSEIGMKGERRRGKGHDGLYQGLSTATKDTYDALHMQALPPR

Assays:
Human BCMA (human) = Human BCMA (human) (UniProt Q02223); test: SPR, IgG on chip, huBCMA analyte
cynomolgus monkey BCMA = biological target: T1, cynomolgus monkey BCMA (cynomolgus monkey, UniProt A0A2K5UD97 1-53); test: SPR, IgG on chip, cyBCMA analyte
T1 construct: Soluble analyte in SPR; construct not described; also called cyBCMA; Cyno BCMA
T1 sequence (A0A2K5UD97 entry or part of it): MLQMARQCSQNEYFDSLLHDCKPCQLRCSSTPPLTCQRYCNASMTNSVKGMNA

[1] = biological target: BCMA (analyte of Table 4A); test: SPR (Bio-Rad ProteOn XPR36), IgG amine-coupled, BCMA as analyte, kinetic titration; BCMA species and temperature not stated in Table 4A
Chain of BCMA (analyte of Table 4A) (Q02223 whole entry): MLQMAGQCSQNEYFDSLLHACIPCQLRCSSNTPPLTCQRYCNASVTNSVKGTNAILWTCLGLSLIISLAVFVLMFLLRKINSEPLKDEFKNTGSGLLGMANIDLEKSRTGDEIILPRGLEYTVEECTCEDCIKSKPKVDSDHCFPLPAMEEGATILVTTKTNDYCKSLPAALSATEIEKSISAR

[2] = biological target: BCMA on MM1S cells (human) (UniProt Q02223); test: cell-based or functional assay
Chain of BCMA on MM1S cells (human) (Q02223 whole entry): as above

[3] = biological target: human BCMA (B-cell maturation antigen) (human) (UniProt Q02223); test: cell-based or functional assay
Chain of human BCMA (B-cell maturation antigen) (human) (Q02223 other isoform, or with tags, fused parts or gaps): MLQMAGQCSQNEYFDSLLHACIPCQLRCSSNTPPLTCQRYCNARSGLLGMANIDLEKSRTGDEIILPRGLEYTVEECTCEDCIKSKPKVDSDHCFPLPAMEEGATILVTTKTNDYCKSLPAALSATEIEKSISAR

Binder	Kd (Human BCMA (human)) [nM]	koff (Human BCMA (human)) [s⁻¹]	kon (Human BCMA (human)) [M⁻¹ s⁻¹]	Kd (cynomolgus monkey BCMA) [nM]	koff (cynomolgus monkey BCMA) [s⁻¹]	kon (cynomolgus monkey BCMA) [M⁻¹ s⁻¹]	Kd [1] [nM]	koff [1] [s⁻¹]	kon [1] [M⁻¹ s⁻¹]	t1/2 [1] [h]	% CD107a+ (in CD8+) (degranulation, CAR-T cells with MM1S cells, Donor 3) [3] [%]	MFI CD107a+ (degranulation, CAR-T cells with MM1S cells, Donor 3) [3] [MFI]	% CD107a+ (in CD8+) (degranulation, CAR-T cells with MM1S cells, Donor 2) [3] [%]	MFI CD107a+ (degranulation, CAR-T cells with MM1S cells, Donor 2) [3] [MFI]	further results
B1	0.03	9.2e-05	3.11e+06	0.401	0.000583	1.45e+06	0.024	2.8e-05	1.2e+06	6.85	–	–	–	–	–
B2	0.019	0.000277	1.47e+07	0.084	0.000336	4e+06	0.021	0.00014	6.6e+06	1.38	–	–	–	–	–
B3	0.09	0.000141	1.56e+06	0.118	0.000158	1.34e+06	0.059	6.2e-05	1.1e+06	3.12	–	–	–	–	–
B4	–	–	–	–	–	–	–	–	–	–	–	–	–	–	% CD107a+ (in CD8+) [2]: 46.4%; MFI CD107a+ [2]: 1850
B5	–	–	–	–	–	–	–	–	–	–	68.2	1960	–	–	–
B6	–	–	–	–	–	–	–	–	–	–	75.6	2180	–	–	–
B7	–	–	–	–	–	–	–	–	–	–	76.1	2220	–	–	–
B8	–	–	–	–	–	–	–	–	–	–	–	–	77.6	2670	–
B9	–	–	–	–	–	–	–	–	–	–	–	–	61.6	1860	–
B10	–	–	–	–	–	–	–	–	–	–	–	–	68.6	2190	–
